Changes are numbered by the printed parent chain.
T1: human NRP1 protein (human, UniProt O14786-2 22-644, limits assumed)
T1 construct: Protein used for ELISA coating (200 ng per well) and SPR; also called Neuropilin 1
T1 sequence (looked up): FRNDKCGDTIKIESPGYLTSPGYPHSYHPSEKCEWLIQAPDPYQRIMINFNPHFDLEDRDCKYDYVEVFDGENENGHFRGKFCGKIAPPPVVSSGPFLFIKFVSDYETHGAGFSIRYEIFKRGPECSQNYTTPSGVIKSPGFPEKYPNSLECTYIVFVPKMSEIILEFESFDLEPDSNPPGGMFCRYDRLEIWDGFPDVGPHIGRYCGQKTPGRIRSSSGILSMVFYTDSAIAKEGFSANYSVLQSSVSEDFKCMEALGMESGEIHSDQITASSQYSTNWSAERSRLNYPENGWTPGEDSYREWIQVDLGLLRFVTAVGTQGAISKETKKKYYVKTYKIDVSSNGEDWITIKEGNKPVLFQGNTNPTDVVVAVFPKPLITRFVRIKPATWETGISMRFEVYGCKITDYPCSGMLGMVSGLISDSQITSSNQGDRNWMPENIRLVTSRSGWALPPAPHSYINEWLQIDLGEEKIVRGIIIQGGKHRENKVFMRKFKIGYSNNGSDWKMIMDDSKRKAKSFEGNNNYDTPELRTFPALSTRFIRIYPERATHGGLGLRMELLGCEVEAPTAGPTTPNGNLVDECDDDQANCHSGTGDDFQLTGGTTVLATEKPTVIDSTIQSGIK

B1: IRCR-101 (3H10) anti-NRP1 IgG (antibody, V domains shown)
VH: EVQLLESGGGLVQPGGSLRLSCAASGFTFSSYYMSWVRQAPGKGLEWVSAISPGSSNKYYADSVKGRFTISRDNSKNTLYLQMNSLRAEDTAVYYCARRKYMFDYWGQGTLVTVSS
VL: QSVLTQPPSASGTPGQRVTISCTGSSSNIGNNDVYWYQQLPGTAPKLLIYSDSNRPSGVPDRFSGSKSGTSASLAISGLRSEDEADYYCASWDSSLSGYVFGGGTKLTVL
B2: 1A03 anti-NRP1 IgG (antibody, V domains shown)
VH: B1 VH with K65Q, Y101K, M102S
VL: B1 VL with T23S, S25P, Y35S, S53N, A90G, S91A, D93V, S94A, G98A
B3: 4F12 anti-NRP1 IgG (antibody, V domains shown)
VH: B1 VH with S31G, Y33A, A50G, S56G, N57S, K58T, R98K, Y101T, M102R
VL: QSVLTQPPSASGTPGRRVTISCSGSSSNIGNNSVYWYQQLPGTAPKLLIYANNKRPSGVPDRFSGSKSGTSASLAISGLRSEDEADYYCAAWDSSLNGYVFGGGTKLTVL
notes: scFv converted to IgG and made in the Expi 293F system, 150 kD; also called 4F12 antibody

What was measured:
[1] = target: NRP1 expressed on the surface of cancer cells (NRP1-overexpressing patient-derived cells); U87MG glioblastoma … (human, UniProt O14786 22-923); assay: cell-based or functional assay
[2] = target: T1, human NRP1 protein; assay: IgG on human NRP1; text says ELISA and SPR, the legend of FIG. 14 says ELISA

Binder | inhibition of tumor cells migration in patient-derived cells [1] | Kd [2]
B1 | > 50% | –
B2 | > 50% | –
B3 | 40% | 0.6 nM

Source: patent publication US20170291948A1 (SAMSUNG LIFE PUBLIC WELFARE FOUNDATION, published 2017)
